In PMC7289447:

T1: Hsc20 Q46Bpa, P53193
T1 chain: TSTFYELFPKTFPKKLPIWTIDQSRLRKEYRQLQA

T2: Hsc20 M51Bpa, P53193
T2 chain: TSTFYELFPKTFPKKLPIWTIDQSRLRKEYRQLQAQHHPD


Assays:
Hsc20 Q46Bpa, P53193 = biological target: T1, Hsc20 Q46Bpa, P53193; assay: site-specific Bpa photo-crosslinking, SDS-PAGE band quantification; details: chain shown with the change; in the presence of ATP; UV irradiation; parent: est. 1.0; read off a plot
Hsc20 M51Bpa, P53193 = biological target: T2, Hsc20 M51Bpa, P53193; assay: as above; details: chain shown with the change; in the presence of ATP; UV irradiation; parent: est. 1.0; read off a plot

| Binder | ratio to parent (Hsc20 Q46Bpa, P53193) | ratio to parent (Hsc20 M51Bpa, P53193) |
| --- | --- | --- |
| Ssq1 wild-type D246A; E253A (protein) MLKSGRLNFLKLNINSRLLYSTNPQLTKKVIGIDLGTTNSAVAYIRDSNDKKSATIIENDEGQRTTPSIVAFDVKSSPQNKDQMKTLVGMAAKRQNAINSENTFFATKRLIGRAFNDKEVQRDMAVMPYKIVKCESNGQAYLSTSNGLIQSPSQIASILLKYLKQTSEEYLGEKVNLAVITVPAYFNDSQRQATKDAGKLAGLNVLRVINEPTAAALSFGIDDKRNNGLIAVYDLGGGTFDISILAIEDGVFAVRATNGDTHLGGEDFDNVIVNYIIDTFIHENPEITREEITKNRETMQRLKDVSERAKIDLSHVKKTFIELPFVYKSKHLRVPMTEEELDNMTLSLINRTIPPVKQALKDADIEPEDIDEVILVGGMTRMPKIRSVVKDLFGKSPNSSVNPDETVALGAAIQGGILSGEIKNVLLLDVTPLTLGIETFGGAFSPLIPRNTTVPVKKTEIFSTGVDGQAGVDIKVFQGERGLVRNNKLIGDLKLTGITPLPKGIPQIYVTFDIDADGIINVSAAEKSSGKQQSITVIPNSGLSEEEIAKLIEEANANRAQDNLIRQRLELISKADIMISDTENLFKRYEKLISSEKEYSNIVEDIKALRQAIKNFKANENDMSIDVNGIKKATDALQGRALKLFQSATKNQQNQGK | 0.22 | 0.11 |
| Ssq1 wild-type E248A; D249A (protein) MLKSGRLNFLKLNINSRLLYSTNPQLTKKVIGIDLGTTNSAVAYIRDSNDKKSATIIENDEGQRTTPSIVAFDVKSSPQNKDQMKTLVGMAAKRQNAINSENTFFATKRLIGRAFNDKEVQRDMAVMPYKIVKCESNGQAYLSTSNGLIQSPSQIASILLKYLKQTSEEYLGEKVNLAVITVPAYFNDSQRQATKDAGKLAGLNVLRVINEPTAAALSFGIDDKRNNGLIAVYDLGGGTFDISILDIAAGVFEVRATNGDTHLGGEDFDNVIVNYIIDTFIHENPEITREEITKNRETMQRLKDVSERAKIDLSHVKKTFIELPFVYKSKHLRVPMTEEELDNMTLSLINRTIPPVKQALKDADIEPEDIDEVILVGGMTRMPKIRSVVKDLFGKSPNSSVNPDETVALGAAIQGGILSGEIKNVLLLDVTPLTLGIETFGGAFSPLIPRNTTVPVKKTEIFSTGVDGQAGVDIKVFQGERGLVRNNKLIGDLKLTGITPLPKGIPQIYVTFDIDADGIINVSAAEKSSGKQQSITVIPNSGLSEEEIAKLIEEANANRAQDNLIRQRLELISKADIMISDTENLFKRYEKLISSEKEYSNIVEDIKALRQAIKNFKANENDMSIDVNGIKKATDALQGRALKLFQSATKNQQNQGK | 0.28 | 0.22 |
